Measurements from patent US20210340268A1 (GENERAL HOSPITAL, published 2021).

Assays:
[1] = molecular target: T1, epitope containing residues 56-60 of SEQ ID NO: 7 within human TNFR2 (KCSPG) (human); assay: epitope mapping analysis (peptide ELISA)
T1 construct: Motif within CRD1 of TNFR2
T1 peptide: KCSPG

[2] = molecular target: T2, recombinant human TNFR2 (human tumor necrosis factor receptor 2) (human, UniProt P20333 23-257); assay: SPR (Biacore 3000), biotinylated antibody captured on streptavidin, recombinant human TNFR2 in solution
T2 sequence: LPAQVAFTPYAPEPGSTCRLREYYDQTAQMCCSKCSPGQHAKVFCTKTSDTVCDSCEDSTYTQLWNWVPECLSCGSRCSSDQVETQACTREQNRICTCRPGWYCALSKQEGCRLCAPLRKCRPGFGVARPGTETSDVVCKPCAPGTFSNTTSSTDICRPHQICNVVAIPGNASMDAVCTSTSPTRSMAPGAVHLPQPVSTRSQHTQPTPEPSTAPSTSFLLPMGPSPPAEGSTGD
Description: The affinities of antagonistic TNFR2 antibodies for recombinant human TNFR2 were measured using BIACORE™ Analysis Services (Precision Antibody). Briefly, the antibody was biotinylated at a 5:1 stoichiometric ratio using biotinyl-LC-LC-[…] (Thermo-Fisher) in PBS. Excess biotinylation reagent was removed by centrifugation chromatography and the biotinylated antibody was captured on 3000 RU of streptavidin surface to a level of 100 RU. […] Analysis of the kinetics of antigen binding was performed at a flow of 60 μL/min with 2 min injections. Antibodies were injected at a concentration of 1 mg/ml to the final capture of 100 RU. The instrument used was BIACORE™ 3000 with the BioCap chip (GE Healthcare). Double reference method was used for analysis. Reference channel contained the identical level of streptavidin.

B1: TNFRAB1 (antibody, V domains shown)
VH: EVQLQESGGGLVKPGGSLKLSCAASGFTFSSYVMSWVRQTPEKRLEWVATISSGGSYTYYPDSVKGRFTISRDNAKNTLYLQMSSLRSEDTAMYYCARQRVDGYSSYWYFDVWGAGTAVTVSS
VL: DIVLTQSPAIMSASPGEKVTITCSASSSVYYMYWFQQKPGTSPKLWIYSTSNLASGVPVRFSGSGSGTSYSLTISRMEAEDAATYYCQQRRNYPYTFGGGTKLEIKR
notes: Murine monoclonal antibody with two heavy and two light chains; also called antagonistic TNFR2 antibody TNFRAB1
**Q.** Does B1 bind [1]?
**A.** no binding

**Q.** What about the Kd [2] of the same binder?
**A.** ~0.0444 nM

**Q.** What about the koff [2] of the same binder?
**A.** 0.000221 s⁻¹

**Q.** What about the kon [2] of the same binder?
**A.** 4.98e+06 M⁻¹ s⁻¹
